Earlier results on five substances are cited in PMC8990303.

Series [1] addresses Bovine trypsin (Bos taurus) (UniProt P00760).
In series [2] the target is Porcine pancreatic alpha-amylase (PPA) (Sus scrofa) (UniProt P00690).
Series [3] deals with Yellow mealworm alpha-amylase (TMA) (Tenebrio molitor) (UniProt P56634).
In series [4] the target is Bovine pancreatic trypsin (Bos taurus) (UniProt P00760).
Series [5] concerns the target Factor XIa (Homo sapiens) (UniProt P03951).
The target in series [6] is Factor XIIa (Homo sapiens) (UniProt P00748).
Chain of UniProt P00748 (P00748 whole entry, looked up): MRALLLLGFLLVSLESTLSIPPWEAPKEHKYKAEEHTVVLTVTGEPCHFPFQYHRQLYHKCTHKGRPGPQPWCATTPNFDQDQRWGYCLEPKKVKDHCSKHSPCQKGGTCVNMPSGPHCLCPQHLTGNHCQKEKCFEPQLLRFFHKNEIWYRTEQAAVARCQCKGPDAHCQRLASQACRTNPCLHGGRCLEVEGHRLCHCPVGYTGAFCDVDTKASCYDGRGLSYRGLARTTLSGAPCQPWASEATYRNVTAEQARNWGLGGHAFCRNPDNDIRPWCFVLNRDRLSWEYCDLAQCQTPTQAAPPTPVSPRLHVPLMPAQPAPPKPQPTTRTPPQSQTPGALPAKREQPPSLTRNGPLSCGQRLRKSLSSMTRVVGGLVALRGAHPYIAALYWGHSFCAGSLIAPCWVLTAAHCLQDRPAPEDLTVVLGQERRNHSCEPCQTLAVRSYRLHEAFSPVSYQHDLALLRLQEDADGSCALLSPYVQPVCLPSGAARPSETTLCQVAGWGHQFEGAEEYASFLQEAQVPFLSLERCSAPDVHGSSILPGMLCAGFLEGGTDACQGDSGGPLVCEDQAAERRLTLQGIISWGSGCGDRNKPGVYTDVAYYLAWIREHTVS
Series [7] deals with Porcine trypsin (Sus scrofa) (UniProt P00761).
Chain of UniProt P00761 (P00761 9-231): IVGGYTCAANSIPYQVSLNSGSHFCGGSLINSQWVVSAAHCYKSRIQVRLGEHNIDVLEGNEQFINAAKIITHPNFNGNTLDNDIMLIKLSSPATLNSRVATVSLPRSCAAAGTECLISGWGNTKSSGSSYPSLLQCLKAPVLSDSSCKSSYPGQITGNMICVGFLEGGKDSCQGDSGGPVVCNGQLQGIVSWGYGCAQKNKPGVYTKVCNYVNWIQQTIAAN
The target is the same in series [8]. The source holds these as a separate data set.
Series [9] has as its target Porcine alpha-amylase (Sus scrofa) (UniProt P00690).
Series [10] shares this target. This is another data set of the same source.
Series [11] deals with Porcine pancreatic alpha-amylase (PPA) (Sus scrofa) (UniProt P00690). This is another data set of the same source.
The target in series [12] is Human salivary alpha-amylase (HSA) (Homo sapiens) (UniProt P0DUB6).
Chain of UniProt P0DUB6 (P0DUB6 16-511): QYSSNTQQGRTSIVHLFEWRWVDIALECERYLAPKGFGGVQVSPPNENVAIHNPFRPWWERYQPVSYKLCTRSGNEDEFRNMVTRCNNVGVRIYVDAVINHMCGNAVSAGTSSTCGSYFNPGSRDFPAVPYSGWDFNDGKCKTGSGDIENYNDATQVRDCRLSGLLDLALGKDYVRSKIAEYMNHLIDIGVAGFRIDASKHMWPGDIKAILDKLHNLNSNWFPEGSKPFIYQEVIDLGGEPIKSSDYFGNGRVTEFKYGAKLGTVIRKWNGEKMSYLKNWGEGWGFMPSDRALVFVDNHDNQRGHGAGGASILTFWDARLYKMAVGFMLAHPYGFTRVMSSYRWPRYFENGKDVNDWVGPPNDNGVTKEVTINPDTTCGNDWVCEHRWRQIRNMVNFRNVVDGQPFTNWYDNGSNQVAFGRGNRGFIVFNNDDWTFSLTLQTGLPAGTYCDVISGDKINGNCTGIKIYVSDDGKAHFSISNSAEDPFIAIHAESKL
The target in series [13] is Yellow mealworm alpha-amylase (TMA) (Tenebrio molitor) (UniProt P56634). This is another data set of the same source.

Where two headings read alike, the source gives them in different places.

Chain of UniProt P56634 (P56634 whole entry): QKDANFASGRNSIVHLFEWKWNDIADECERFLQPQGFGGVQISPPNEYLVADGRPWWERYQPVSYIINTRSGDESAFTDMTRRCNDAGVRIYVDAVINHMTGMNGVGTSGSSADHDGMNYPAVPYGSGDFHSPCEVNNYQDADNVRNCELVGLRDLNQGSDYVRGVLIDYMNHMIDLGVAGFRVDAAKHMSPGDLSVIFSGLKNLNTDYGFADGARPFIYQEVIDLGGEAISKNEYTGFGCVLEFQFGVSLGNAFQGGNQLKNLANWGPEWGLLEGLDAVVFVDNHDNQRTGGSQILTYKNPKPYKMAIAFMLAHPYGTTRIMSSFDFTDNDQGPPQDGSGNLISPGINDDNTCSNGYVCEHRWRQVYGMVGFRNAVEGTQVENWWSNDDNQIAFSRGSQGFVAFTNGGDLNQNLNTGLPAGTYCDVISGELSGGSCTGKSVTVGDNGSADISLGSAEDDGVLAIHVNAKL
Chain of UniProt P03951 (P03951 388-625): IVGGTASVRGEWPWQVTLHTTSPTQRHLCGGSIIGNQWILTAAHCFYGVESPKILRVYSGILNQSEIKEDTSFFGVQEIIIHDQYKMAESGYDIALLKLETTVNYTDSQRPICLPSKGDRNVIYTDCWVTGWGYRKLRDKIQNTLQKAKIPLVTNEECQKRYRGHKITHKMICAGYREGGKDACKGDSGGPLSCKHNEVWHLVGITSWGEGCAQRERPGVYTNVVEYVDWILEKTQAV

For the substance “Ragi bifunctional alpha-amylase/trypsin inhibitor (RBI) (from UniProt P01087)”, the Ki in series [1] was 1.2 nM; in series [2], 11 nM.
In the case of “0.28 alpha-amylase inhibitor (WMAI-1) (from UniProt P01083)”, the Ki in [3] was 0.13 nM.
Regarding “Corn Hageman factor inhibitor (CHFI) (from UniProt P01088)”, the results for the Ki in series [4], in series [5] and in [6] were 2.1 nM, 5400 nM and 1 nM, respectively.
Regarding CM3 (from UniProt P17314), the figures for the Ki in [7] and in series [10] were 10.4 nM and 600 nM, respectively. In addition, the Kd was 36 nM in [8] and 340 nM in series [9].
Regarding “0.19 alpha-amylase inhibitor (from UniProt P01085)”, the values for the Ki in series [11], in [12] and in [13] were 57.3 nM, 0.29 nM and 0.85 nM, respectively.
